Measured values: patent US20120277142A1 (HANALL BIOPHARMA, published 2012)

target: T1, TNF-α (UniProt P01375 77-233, limits assumed); assay: cell-based or functional assay
T1 sequence (P01375 77-233 limits assumed): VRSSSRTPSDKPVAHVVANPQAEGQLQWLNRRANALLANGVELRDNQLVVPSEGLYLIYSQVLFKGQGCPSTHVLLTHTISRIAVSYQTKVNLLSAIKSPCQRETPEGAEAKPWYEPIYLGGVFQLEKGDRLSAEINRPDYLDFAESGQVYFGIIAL

| Binder | Relative Activity (Cytotoxicity-neutralizing activity) (fold) |
| --- | --- |
| TNFRI171-A22 (receptor) MDSVCPQGKYIHPQNNSICCTKCHKGTYLYNDCPGPGQDTDCRECESGSFTAMENFLPGCLSCSKCRKEMGQVEISSCTVDRDTVCGCRKNQYRHYWSENLFQCFNCSLCLNGTVHLSCQEKQNTVCTCHAGFFLRENECVSCSNCKKSLECTKLCLPQIENVKGTEDSGTT | 242 fold |
| TNFRI171-A18 (receptor) MDSVCPQGKYIHPQNNSICCTKCHKGTYLYNDCPGPGQDTDCRECESGSFTAHENFLPACLSCSKCRKEMGQVEISSCTVDRDTVCGCRKNQYRHYWSENLFQCFNCSLCLNGTVHLSCQEKQNTVCTCHAGFFLRENECVSCSNCKKSLECTKLCLPQIENVKGTEDSGTT | 126 fold |
| TNFRI171-A10 (receptor) MDSVCPQGKYIHPQNNSICCTKCHKGTYLYNDCPGPGQDTDCRECESGSFTAWENFLPACLSCSKCRKEMGQVEISSCTVDRDTVCGCRKNQYRHYWSENLFQCFNCSLCLNGTVHLSCQEKQNTVCTCHAGFFLRENECVSCSNCKKSLECTKLCLPQIENVKGTEDSGTT | 44 fold |
| TNFRI171-A21 (receptor) MDSVCPQGKYIHPQNNSICCTKCHKGTYLYNDCPGPGQDTDCRECESGSFTAIENFLPGCLSCSKCRKEMGQVEISSCTVDRDTVCGCRKNQYRHYWSENLFQCFNCSLCLNGTVHLSCQEKQNTVCTCHAGFFLRENECVSCSNCKKSLECTKLCLPQIENVKGTEDSGTT | 226 fold |
| TNFRI171-A16 (receptor) MDSVCPQGKYIHPQNNSICCTKCHKGTYLYNDCPGPGQDTDCRECESGSFTAKENFLPACLSCSKCRKEMGQVEISSCTVDRDTVCGCRKNQYRHYWSENLFQCFNCSLCLNGTVHLSCQEKQNTVCTCHAGFFLRENECVSCSNCKKSLECTKLCLPQIENVKGTEDSGTT | 139 fold |
| TNFRI171-A30 (receptor) MDSVCPQGKYIHPQNNSICCTKCHKGTYLYNDCPGPGQDTDCRECESGSFTAIPNFLPACLSCSKCRKEMGQVEISSCTVDRDTVCGCRKNQYRHYWSENLFQCFNCSLCLNGTVHLSCQEKQNTVCTCHAGFFLRENECVSCSNCKKSLECTKLCLPQIENVKGTEDSGTT | 127 fold |
| TNFRI171-A2 (receptor) MDSVCPQGKYIHPQNNSICCTKCHKGTYLYNDCPGPGQDTDCRECESGSFTAIENFLPACLSCSKCRKEMGQVEISSCTVDRDTVCGCRKNQYRHYWSENLFQCFNCSLCLNGTVHLSCQEKQNTVCTCHAGFFLRENECVSCSNCKKSLECTKLCLPQIENVKGTEDSGTT | 207 fold |
| TNFRI171-A8 (receptor) MDSVCPQGKYIHPQNNSICCTKCHKGTYLYNDCPGPGQDTDCRECESGSFTAFENFLPACLSCSKCRKEMGQVEISSCTVDRDTVCGCRKNQYRHYWSENLFQCFNCSLCLNGTVHLSCQEKQNTVCTCHAGFFLRENECVSCSNCKKSLECTKLCLPQIENVKGTEDSGTT | 120 fold |
| TNFRI171-A9 (receptor) MDSVCPQGKYIHPQNNSICCTKCHKGTYLYNDCPGPGQDTDCRECESGSFTAMENFLPACLSCSKCRKEMGQVEISSCTVDRDTVCGCRKNQYRHYWSENLFQCFNCSLCLNGTVHLSCQEKQNTVCTCHAGFFLRENECVSCSNCKKSLECTKLCLPQIENVKGTEDSGTT | 158 fold |
| TNFRI171-A15 (receptor) MDSVCPQGKYIHPQNNSICCTKCHKGTYLYNDCPGPGQDTDCRECESGSFTAYENFLPACLSCSKCRKEMGQVEISSCTVDRDTVCGCRKNQYRHYWSENLFQCFNCSLCLNGTVHLSCQEKQNTVCTCHAGFFLRENECVSCSNCKKSLECTKLCLPQIENVKGTEDSGTT | 142 fold |
| TNFRI171-A26 (receptor) MDSVCPQGKYIHPQNNSICCTKCHKGTYLYNDCPGPGQDTDCRECESGSFTAIPNFLPGCLSCSKCRKEMGQVEISSCTVDRDTVCGCRKNQYRHYWSENLFQCFNCSLCLNGTVHLSCQEKQNTVCTCHAGFFLRENECVSCSNCKKSLECTKLCLPQIENVKGTEDSGTT | 196 fold |

target: T1, TNF-α; assay: competition ELISA: sample vs plate-bound TNFRI190 for TNF-α, from IC50, relative to wild-type TNFRI126
Protocol: (§1) Each well was washed three times with 300 μL of washing buffer (0.05% Tween-20, PBS, pH 7.4) and incubated at room temperature for 2 hours with 300 μL of a blocking buffer (5% skim milk, PBS, pH 7.4). Then, each well was washed as mentioned above. A sample of interest was diluted to concentrations of 500 nM, 125 nM, 31 nM, 7.8 nM, 1.9 nM, 0.48 nM, 0.12 nM, and 0.03 nM in series and loaded in an amount of 100 μL into each well in duplicate. To each well was added 100 μL of 50 ng/ml TNF-α, followed by incubation at room temperature for 2 hours. After the wells were washed with a washing buffer, 100 μg/mL anti-TNF-α antibody solution was diluted 1/1000, added in an amount of 100 μL per each well, and incubated at room temperature for 2 hours. After the plates were washed with a washing buffer, a substrate was added in an amount of 100 μL to each well and reacted at room temperature for 15 min. In each well, 100 μL of the substrate 3,3′,5,5′-tetramethylbenzidine (RnD, Cat. No: DY999) was reacted at room temperature for 15 min, followed by adding 50 μL of 1.0 M sulfuric acid (Samchun Chemical, Cat. No: 52129) to each well to stop the reaction.
Affinity of Met-TNFRI and Met-TNFRI mutants for TNF-α was determined by measuring an absorbance change with concentration and evaluating IC₅₀ value by measuring an absorbance change with concentration.

| Affinity (%) | Binder |
| --- | --- |
| 100% | Met-TNFRI126 (receptor, also called Wild-type (TNFRI126); wild-type TNFRI) MDSVCPQGKYIHPQNNSICCTKCHKGTYLYNDCPGPGQDTDCRECESGSFTASENHLRHCLSCSKCRKEMGQVEISSCTVDRDTVCGCRKNQYRHYWSENLFQCFNCSLCLNGTVHLSCQEKQNTVC |

target: T1, TNF-α; assay: as above; remark: another data set of the same source
Protocol: as §1
The affinity of the Met-TNFRI for TNF-α was assayed using the same procedure as in [Experimental Example 1]

| Relative Affinity for Ligand (%) | Binder |
| --- | --- |
| 100% | Met-TNFRI126 (receptor, also called Wild-type (TNFRI126); wild-type TNFRI) MDSVCPQGKYIHPQNNSICCTKCHKGTYLYNDCPGPGQDTDCRECESGSFTASENHLRHCLSCSKCRKEMGQVEISSCTVDRDTVCGCRKNQYRHYWSENLFQCFNCSLCLNGTVHLSCQEKQNTVC |
| 522% | TNFRI126-S53 (receptor, Met-TNFRI126 superlead mutant made in E. coli) MDSVCPQGKYIHPQNNSICCTKCHKGTYVYNDCPGPGQDTDCRECESGSFTAIENFLPACLSCSKCRKEMGQVEISSCTVDRDTVCGCRKNQYRHYWSENLFQCFNCSLCLNGTVHLSCQEQQNTVC |
| 463% | TNFRI126-S59 (receptor, Met-TNFRI126 superlead mutant made in E. coli) MDSVCPQGKYIHPQNNSICCTKCHKGTYVYNDCPGPGQDTDCRECESGSFTAHENFLPACLSCSKCRKEMGQVEISSCTVDRDTVCGCRKNQYRHYWSENLFQCFNCSLCLNGTVHLSCQEQQNTVC |
| 448% | TNFRI126-S54 (receptor, Met-TNFRI126 superlead mutant made in E. coli) MDSVCPQGKYIHPQNNSICCTKCHKGTYVYNDCPGPGQDTDCRECESGSFTAIENFLPACLSCSKCRKEMGQVEISSCTVDRDTVCGCRKNQYRHYWSENLFQCFNCSLCLNGTVHLSCQENQNTVC |
| 543% | TNFRI126-S62 (receptor, Met-TNFRI126 superlead mutant made in E. coli) MDSVCPQGKYIHPQNNSICCTKCHKGTYVYNDCPGPGQDTDCRECESGSFTAIENFLPGCLSCSKCRKEMGQVEISSCTVDRDTVCGCRKNQYRHYWSENLFQCFNCSLCLNGTVHLSCQEQQNTVC |
| 412% | TNFRI126-S46 (receptor, Met-TNFRI126 superlead mutant made in E. coli) MDSVCPQGKYIHPQNNSICCTKCHKGTYVYNDCPGPGQDTDCRECESGSFTAIENFLPGCLSCSKCRKEMGQVEISSCTVDRDTVCGCRKNQYRHYWSENLFQCFNCSLCLNGTVHLSCQEKQNTVC |
| 486% | TNFRI126-S63 (receptor, Met-TNFRI126 superlead mutant made in E. coli) MDSVCPQGKYIHPQNNSICCTKCHKGTYVYNDCPGPGQDTDCRECESGSFTAMENFLPGCLSCSKCRKEMGQVEISSCTVDRDTVCGCRKNQYRHYWSENLFQCFNCSLCLNGTVHLSCQENQNTVC |
| 489% | TNFRI126-S36 (receptor, Met-TNFRI126 superlead mutant made in E. coli) MDSVCPQGKYIHPQNNSICCTKCHKGTYVYNDCPGPGQDTDCRECESGSFTAMENFLPACLSCSKCRKEMGQVEISSCTVDRDTVCGCRKNQYRHYWSENLFQCFNCSLCLNGTVHLSCQEKQNTVC |
| 602% | TNFRI126-S56 (receptor, Met-TNFRI126 superlead mutant made in E. coli) MDSVCPQGKYIHPQNNSICCTKCHKGTYVYNDCPGPGQDTDCRECESGSFTAMENFLPACLSCSKCRKEMGQVEISSCTVDRDTVCGCRKNQYRHYWSENLFQCFNCSLCLNGTVHLSCQEQQNTVC |
| 397% | TNFRI126-S60 (receptor, Met-TNFRI126 superlead mutant made in E. coli) MDSVCPQGKYIHPQNNSICCTKCHKGTYVYNDCPGPGQDTDCRECESGSFTAHENFLPACLSCSKCRKEMGQVEISSCTVDRDTVCGCRKNQYRHYWSENLFQCFNCSLCLNGTVHLSCQENQNTVC |
| 432% | TNFRI126-S41 (receptor, Met-TNFRI126 superlead mutant made in E. coli) MDSVCPQGKYIHPQNNSICCTKCHKGTYVYNDCPGPGQDTDCRECESGSFTAHENFLPACLSCSKCRKEMGQVEISSCTVDRDTVCGCRKNQYRHYWSENLFQCFNCSLCLNGTVHLSCQEKQNTVC |
| 501% | TNFRI126-S47 (receptor, Met-TNFRI126 superlead mutant made in E. coli) MDSVCPQGKYIHPQNNSICCTKCHKGTYVYNDCPGPGQDTDCRECESGSFTAMENFLPGCLSCSKCRKEMGQVEISSCTVDRDTVCGCRKNQYRHYWSENLFQCFNCSLCLNGTVHLSCQEKQNTVC |
| 465% | TNFRI126-S57 (receptor, Met-TNFRI126 superlead mutant made in E. coli) MDSVCPQGKYIHPQNNSICCTKCHKGTYVYNDCPGPGQDTDCRECESGSFTAMENFLPACLSCSKCRKEMGQVEISSCTVDRDTVCGCRKNQYRHYWSENLFQCFNCSLCLNGTVHLSCQENQNTVC |
| 477% | TNFRI126-S48 (receptor, Met-TNFRI126 superlead mutant made in E. coli) MDSVCPQGKYIHPQNNSICCTKCHKGTYVYNDCPGPGQDTDCRECESGSFTAIPNFLPGCLSCSKCRKEMGQVEISSCTVDRDTVCGCRKNQYRHYWSENLFQCFNCSLCLNGTVHLSCQEKQNTVC |
